± gives the uncertainty stated by the source.
Test: self-splicing fitness, log relative to wild type (ln ratio); higher = more splicing; Tetrahymena group I intron in knt gene, E. coli kanamycin selection, DiMSum; sequences stand for … in CUCUCU…GGAGGGAAAAGUUAUCAGGCAUGCACCUGGUAGCUAGUCUUUAAACCAAUAGAUUGCAUCGGUUUAAAAGGCAAGACCGUCAAAUUGCGGGAAAGGGGUCAACAGCCGUUCAGUACCAAGUCUCAGGGGAAACUUUGAGAUGGCCUUGCAAAGGGUAUGGUAAUAAGCUGACGGACAUGGUCCUAACCACGCAGCCAAGUCCUAAGUCAACAGAUCUUCUGUUGAUAUGGAUGCAGUUCACAGACUAAAUGUCGGUCGGGGAAGAUGUAUUCUUCUCAUAAGAUAUAGUCGGACCUCUCCUUAAUGGGAGCUAGCGGAUGAAGUGAUGCAACACUGGAGCCGCUGGGAACUAAUUUGUAUGCGAAAGUAUAUUGAUUAGUUUUGGAGUACUCGUGGUCG
Method in brief: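 The eight P1ex-region nucleotides of an intron in the knt kanamycin-resistance gene on pET-22b(+) were all randomised and the library put into E. coli BL21(DE3). Six replicate transformations were grown overnight at 37°C or 30°C on LB agar with or without 25 μg/mL kanamycin, together with 100 μg/mL carbenicillin, 50 μM IPTG and 0.2% rhamnose. Colonies were pooled and amplicon-sequenced on an Illumina HiSeq 2500. Fitness from DiMSum is the error-weighted combination of wild-type-normalised replicate fold changes, kanamycin over none.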

Row | Sequence | self-splicing fitness (ln) (30 °C) | self-splicing fitness (ln) (37 °C)
1 | UGUAAGCAAUAUUACGAGCU | -0.434 ± 0.16 | 0.293 ± 0.16
2 | UGUAAGCAAUAUUACGAGGU | -4.29 ± 0.36 | -2.63 ± 0.28
3 | UGUAAGCAAUAUUACGAUGU | -3.26 ± 0.15 | -1.93 ± 0.21
4 | UGUAAGCAAUAUUACGCCAC | -3.43 ± 0.33 | -2.65 ± 0.41
5 | UGUAAGCAAUAUUACGCGCA | -0.603 ± 0.14 | -0.167 ± 0.17
6 | UGUAAGCAAUAUUACGCGCC | -1.18 ± 0.1 | -0.53 ± 0.13
7 | UGUAAGCAAUAUUACGCGUC | -3.31 ± 0.25 | -2.65 ± 0.32
8 | UGUAAGCAAUAUUACGGCAG | -0.191 ± 0.091 | 0.0264 ± 0.11
9 | UGUAAGCAAUAUUACGGCGC | -1.87 ± 0.18 | -1.43 ± 0.25
10 | UGUAAGCAAUAUUACGGCUA | 0.0076 ± 0.11 | 0.536 ± 0.13
11 | UGUAAGCAAUAUUACGGGCG | 0.00753 ± 0.092 | 0.237 ± 0.11
12 | UGUAAGCAAUAUUACGGGCU | -1.73 ± 0.17 | -0.63 ± 0.16
13 | UGUAAGCAAUAUUACGUAAG | -1.86 ± 0.15 | -1.84 ± 0.11
14 | UGUAAGCAAUAUUACGUCCG | -0.161 ± 0.12 | 0.473 ± 0.12
15 | UGUAAGCAAUAUUACGUGUC | -3.77 ± 0.2 | -2.01 ± 0.17
16 | UGUAAGCAAUAUUACGUGUG | -1.04 ± 0.085 | -0.237 ± 0.095
17 | UGUAAGCAAUAUUACGUGUU | -3.3 ± 0.15 | -0.96 ± 0.12
18 | UGUAAGCAAUAUUACGUUUC | -3.11 ± 0.22 | -3.02 ± 0.43
19 | UGUAAGCAAUAUUACGUUUU | -4.1 ± 0.18 | -1.14 ± 0.096

Row | Sequence | self-splicing fitness (ln) (30 °C) | self-splicing fitness (ln) (37 °C)
20 | UGUCAGCAAUAUUACGAAUG | 0.0484 ± 0.12 | 0.565 ± 0.12
21 | UGUCAGCAAUAUUACGACCA | -0.0909 ± 0.084 | 0.138 ± 0.12
22 | UGUCAGCAAUAUUACGACGA | -0.0655 ± 0.12 | -1.08 ± 0.12
23 | UGUCAGCAAUAUUACGAGCA | -0.272 ± 0.12 | -0.347 ± 0.13
24 | UGUCAGCAAUAUUACGAUGC | -2.28 ± 0.42 | 
25 | UGUCAGCAAUAUUACGCACU | -1.07 ± 0.087 | -0.0217 ± 0.12
26 | UGUCAGCAAUAUUACGCCGU | -1.42 ± 0.13 | -1.12 ± 0.15
27 | UGUCAGCAAUAUUACGGAAC | -3.82 ± 0.2 | -2.23 ± 0.3
28 | UGUCAGCAAUAUUACGGCAC | -2.42 ± 0.35 | 
29 | UGUCAGCAAUAUUACGGGCA | -2.75 ± 0.21 | -1.78 ± 0.27
30 | UGUCAGCAAUAUUACGGGCG | -1.71 ± 0.093 | -1.26 ± 0.12
31 | UGUCAGCAAUAUUACGGGUU | -2.31 ± 0.1 | -1.07 ± 0.11
32 | UGUCAGCAAUAUUACGGUCG | -0.443 ± 0.068 | 0.559 ± 0.11
33 | UGUCAGCAAUAUUACGGUUU | -1.01 ± 0.061 | -0.547 ± 0.086
34 | UGUCAGCAAUAUUACGUAUG | -0.239 ± 0.063 | 0.657 ± 0.086
35 | UGUCAGCAAUAUUACGUAUU | -1.77 ± 0.071 | -0.932 ± 0.081
36 | UGUCAGCAAUAUUACGUCAG | -0.398 ± 0.09 | -0.464 ± 0.098
37 | UGUCAGCAAUAUUACGUCUC | -2.3 ± 0.15 | -1.86 ± 0.22
38 | UGUCAGCAAUAUUACGUGCA | -0.626 ± 0.09 | -0.232 ± 0.1

— the supplement of paper PMC7877785
